Measurements: publication PMC7641127, “MCL1 binds and negatively regulates the transcriptional function of tumor suppressor p73” (Cell Death & Disease, 2020)
One block for each substance: values may come before it.

Key:
[1] = biological target: recombinant p73 DBD-TD (amino acids 112–398) (human) (UniProt O15350)
[2] = biological target: recombinant MCL1 (human) (UniProt Q07820); assay: fluorescence polarisation; competitive FPA: 50 nM recombinant MCL1, 10 nM F-BAK, titration of unlabeled p73 peptide or p73DBD, 1× PBS pH 7.4
[3] = biological target: recombinant MCL1 (human) (UniProt Q07820); assay: fluorescence polarisation; direct FPA: recombinant MCL1 with FITC-peptide, 30 min, 1× PBS pH 7.4; limit of detection of the probe 5 nM

Sequence of recombinant p73 DBD-TD (amino acids 112–398) (human) (O15350 112-398): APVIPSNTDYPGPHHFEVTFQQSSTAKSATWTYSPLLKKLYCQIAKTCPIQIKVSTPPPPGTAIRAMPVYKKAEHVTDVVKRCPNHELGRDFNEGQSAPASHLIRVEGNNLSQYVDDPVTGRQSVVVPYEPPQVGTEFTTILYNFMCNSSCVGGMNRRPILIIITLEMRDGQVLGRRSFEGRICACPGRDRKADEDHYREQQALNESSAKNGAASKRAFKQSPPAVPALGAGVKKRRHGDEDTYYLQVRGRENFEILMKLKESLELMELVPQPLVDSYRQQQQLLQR

decrease in EMSA: binding of 10 μM p73 (DBD-TD) to 1 μM FITC-GADD45 DNA on titration of recombinant MCL1 (10–200 μM), free probe quantified [1]: 27%
Substance: recombinant MCL1 (from UniProt Q07820 1-350) (natural protein)

IC50 [2]: 982 nM
Substance: p73_(23mer) peptide (23 amino acids, from the p73 tetramerization domain), unlabeled

Kd [3]: < 5 nM
Substance: N-terminally labeled FITC-p73_(23mer) peptide
